Test results: publication PMC10491607 (Cell Discovery, 2023)

Target: T1, Angiotensin-converting enzyme 2 (ACE2) (UniProt Q9BYF1 18-805, glycosylation moieties seen in the map)
T1 construct: source: co-transfected in HEK-293T cells for the current recordings
Experiment: cryo-EM structure; ACE2-SIT1 complex bound to Pro, 3.3 Å overall (transmembrane domain 3.7 Å local)
Conditions: both partners purified

T1 sequence (Q9BYF1 18-805): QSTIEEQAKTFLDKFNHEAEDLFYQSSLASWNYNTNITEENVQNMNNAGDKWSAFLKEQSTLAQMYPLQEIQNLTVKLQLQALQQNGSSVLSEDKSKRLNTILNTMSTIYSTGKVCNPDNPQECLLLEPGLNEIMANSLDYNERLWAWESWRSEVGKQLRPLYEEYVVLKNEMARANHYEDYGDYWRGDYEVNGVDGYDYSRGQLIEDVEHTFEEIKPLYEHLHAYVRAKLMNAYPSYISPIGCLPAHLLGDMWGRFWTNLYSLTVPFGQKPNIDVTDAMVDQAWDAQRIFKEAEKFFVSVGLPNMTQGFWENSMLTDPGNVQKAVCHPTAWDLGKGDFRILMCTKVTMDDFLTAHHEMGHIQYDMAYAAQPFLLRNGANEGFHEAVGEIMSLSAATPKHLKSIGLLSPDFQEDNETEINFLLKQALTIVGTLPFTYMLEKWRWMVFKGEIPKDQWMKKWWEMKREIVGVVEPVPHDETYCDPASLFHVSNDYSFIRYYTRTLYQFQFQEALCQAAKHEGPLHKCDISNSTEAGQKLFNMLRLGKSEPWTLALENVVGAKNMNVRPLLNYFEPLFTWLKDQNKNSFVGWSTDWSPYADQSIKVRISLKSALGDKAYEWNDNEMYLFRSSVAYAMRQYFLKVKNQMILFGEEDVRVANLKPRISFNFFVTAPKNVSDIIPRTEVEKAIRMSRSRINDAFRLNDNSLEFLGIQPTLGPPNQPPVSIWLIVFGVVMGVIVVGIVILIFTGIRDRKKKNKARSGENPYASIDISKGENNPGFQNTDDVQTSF

B1: SIT1 (SLC6A20) (natural protein)
chain: MEKARPLWANSLQFVFACISYAVGLGNVWRFPYLCQMYGGGSFLVPYIIMLIVEGMPLLYLELAVGQRMRQGSIGAWRTISPYLSGVGVASVVVSFFLSMYYNVINAWAFWYLFHSFQDPLPWSVCPLNGNHTGYDEECEKASSTQYFWYRKTLNISPSLQENGGVQWEPALCLLLAWLVVYLCILRGTESTGKVVYFTASLPYCVLIIYLIRGLTLHGATNGLMYMFTPKIEQLANPKAWINAATQIFFSLGLGFGSLIAFASYNEPSNNCQKHAIIVSLINSFTSIFASIVTFSIYGFKATFNYENCLKKVSLLLTNTFDLEDGFLTASNLEQVKGYLASAYPSKYSEMFPQIKNCSLESELDTAVQGTGLAFIVYTEAIKNMEVSQLWSVLYFFMLLMLGIGSMLGNTAAILTPLTDSKIISSHLPKEAISGLVCLVNCAIGMVFTMEAGNYWFDIFNDYAATLSLLLIVLVETIAVCYVYGLRRFESDLKAMTGRAVSWYWKVMWAGVSPLLIVSLFVFYLSDYILTGTLKYQAWDASQGQLVTKDYPAYALAVIGLLVASSTMCIPLAALGTFVQRRLKRGDADPVA
notes: also called WT; source: co-transfected in HEK-293T cells for the current recordings
Does B1 bind?
Result: binds
